{"source": "patent US12441811B2", "about": "“Compositions and methods for treating serpin B13 disorders” (REGENTS OF THE UNIVERSITY OF MINNESOTA, priority 2019, dated 2025)", "molecules": {"B1": {"name": "B29: mouse monoclonal antibody to serpin B13, clone B29; heavy chain SEQ ID NO:14, kappa light chain SEQ ID NO:16 (antibody, V domains shown)", "VH": "QIQLVQSGPELKKPGETVKISCKASGYTFTTYGMSWVKQAPGKGLKWMGWINTYSGMPTYADDFKGRFAFSLETSATTAYLQINNLKNEDTATYFCARPLLGLDYWGQGTTLTVSS", "VL": "DIVMTQTPLSLSVTIGQPASISCKSSQSLLHSDGKTFLNWFLQRPGQSPKLLIYLVSKLESGIPDRFSGSGSGTDFTLKISRVEVEDLGVYYCLQHTHFPLTFGAGTKLEIK"}}, "system": "pancreatic islets and β-cells", "test": "Follow-up of healthy offspring with gestational exposure to anti-serpinB13 mAb", "format": "in vivo, mouse", "details": "for β-cell mass per animal (islet mass): offspring", "protocol": "The control mouse mAb (clone TIB92) was from ATCC (Manassas, VA, USA). The recombinant human control Ab (cat. No 403502) was from BioLegend (San Diego, CA). In most of the experiments, anti-serpinB13 mAb (clone B29) or control mouse mAb was injected i.p. into pregnant female mice at 50 μg for four consecutive days, starting at gestational day E10.5 (total dose of 200 μg). In the lineage tracing experiments in adult mice, B29 was injected i.p. for 7 days at 100 μg/injection during the first week after STZ treatment (total dose of 700 μg).\nPreparation of the islets and single islet-cell suspensions. The adult pancreases were subjected to digestion with collagenase P and passed through the 100-μm strainers to separate the islets from debris. The blindly digested pancreatic samples were manually counted for the number of pancreatic islets under a dissecting microscope with a warm halogen light from below. The islets were defined as any visible, distinct cluster of cells with smooth edges and light- to dark-brown glowing color and diameter greater than 100 μm. The hand-picked islets were then dispersed with CellStripper (cat. no. 25-056-CI; Corning, Corning, NY). The cells were fixed and permeabilized, using the Foxp3/Transcription Factor Staining Buffer Set to permit intracellular staining.\nCalculation of the islet mass. In embryos, the β-cell mass was expressed as the percentage of the area of all pancreatic sections combined, that positively stained with anti-insulin antibody. To calculate β-cell mass in adult mice, the percentage insulin-positive area was multiplied by the pancreas weight expressed in milligrams.\nEstimating the number of islets and islet cells. The islets were manually counted under a dissecting microscope. To estimate the number of α and β cells, the islet cells were dispersed, intracellularly stained with antibodies to […], respectively, and their counts measured by FACS.", "key": {"[1]": {"details": "8-week old offspring, prenatal exposure"}}}
{"molecule": "B1", "values": [{"measurement": "number of pancreatic islets", "setting": "[1]", "value": "significant increase"}, {"measurement": "total β-cell number", "setting": "[1]", "value": "significant increase"}, {"measurement": "α-cell population", "setting": "[1]", "value": "significantly increased"}, {"measurement": "total pancreas and body weight", "setting": "at birth and in adulthood, vs control group", "value": "remained the same"}, {"measurement": "β-cell mass per animal (islet mass)", "setting": "prenatal exposure, listed as anti-serpinB13 antibody", "value": "increased"}, {"measurement": "β-cell mass per animal (islet mass)", "setting": "prenatal exposure, listed as anti-serpinB13 mAb", "value": "significant increase"}, {"measurement": "β-cell mass per animal (islet mass)", "setting": "prenatal exposure, listed as mAb", "value": "significant expansion"}]}
